Source: US20250270343A1 (Alector, published 2025)
Numbering of substitutions follows the chain as printed.

T1: soluble mouse GPNMB (recombinant extracellular domain) (mouse, UniProt Q99P91 23-502)
T1 construct: also called moGPNMB; not shown: C-terminal polyhistidine or Avi-His tag
T1 sequence: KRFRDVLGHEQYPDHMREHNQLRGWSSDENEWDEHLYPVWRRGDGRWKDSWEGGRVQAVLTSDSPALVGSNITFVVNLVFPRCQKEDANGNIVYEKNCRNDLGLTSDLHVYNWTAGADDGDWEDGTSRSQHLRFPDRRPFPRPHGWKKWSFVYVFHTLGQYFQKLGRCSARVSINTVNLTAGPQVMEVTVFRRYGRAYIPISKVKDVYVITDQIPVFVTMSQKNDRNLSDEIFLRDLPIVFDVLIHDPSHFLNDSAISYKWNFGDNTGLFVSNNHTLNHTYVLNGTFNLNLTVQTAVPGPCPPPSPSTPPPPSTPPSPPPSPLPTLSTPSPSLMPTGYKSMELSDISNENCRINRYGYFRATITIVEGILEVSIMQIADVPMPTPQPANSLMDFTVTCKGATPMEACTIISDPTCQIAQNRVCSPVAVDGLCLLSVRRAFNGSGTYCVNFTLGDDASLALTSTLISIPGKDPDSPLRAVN

T2: soluble human GPNMB (recombinant extracellular domain) (human, UniProt Q14956 23-498)
T2 construct: also called huGPNMB; recombinant human GPNMB extracellular domain; not shown: C-terminal polyhistidine or Avi-His tag
T2 sequence: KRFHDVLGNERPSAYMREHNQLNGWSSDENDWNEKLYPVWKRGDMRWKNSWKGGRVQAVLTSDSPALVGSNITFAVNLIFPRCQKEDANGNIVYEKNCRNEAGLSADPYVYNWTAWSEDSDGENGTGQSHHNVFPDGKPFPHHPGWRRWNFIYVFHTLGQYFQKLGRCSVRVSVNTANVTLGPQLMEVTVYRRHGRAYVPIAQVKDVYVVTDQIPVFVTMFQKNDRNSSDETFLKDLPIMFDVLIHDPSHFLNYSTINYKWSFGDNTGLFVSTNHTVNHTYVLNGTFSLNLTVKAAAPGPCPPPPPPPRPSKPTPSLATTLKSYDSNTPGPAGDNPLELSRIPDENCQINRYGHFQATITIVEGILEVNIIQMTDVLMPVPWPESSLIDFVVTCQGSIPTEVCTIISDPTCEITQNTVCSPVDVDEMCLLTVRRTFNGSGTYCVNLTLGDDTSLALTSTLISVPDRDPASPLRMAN

T3: mouse GPNMB endogenously expressed on B16F10 cells (mouse, UniProt Q99P91 23-574)
T3 construct: whole, on cells; also called moGPNMB
T3 sequence (looked up): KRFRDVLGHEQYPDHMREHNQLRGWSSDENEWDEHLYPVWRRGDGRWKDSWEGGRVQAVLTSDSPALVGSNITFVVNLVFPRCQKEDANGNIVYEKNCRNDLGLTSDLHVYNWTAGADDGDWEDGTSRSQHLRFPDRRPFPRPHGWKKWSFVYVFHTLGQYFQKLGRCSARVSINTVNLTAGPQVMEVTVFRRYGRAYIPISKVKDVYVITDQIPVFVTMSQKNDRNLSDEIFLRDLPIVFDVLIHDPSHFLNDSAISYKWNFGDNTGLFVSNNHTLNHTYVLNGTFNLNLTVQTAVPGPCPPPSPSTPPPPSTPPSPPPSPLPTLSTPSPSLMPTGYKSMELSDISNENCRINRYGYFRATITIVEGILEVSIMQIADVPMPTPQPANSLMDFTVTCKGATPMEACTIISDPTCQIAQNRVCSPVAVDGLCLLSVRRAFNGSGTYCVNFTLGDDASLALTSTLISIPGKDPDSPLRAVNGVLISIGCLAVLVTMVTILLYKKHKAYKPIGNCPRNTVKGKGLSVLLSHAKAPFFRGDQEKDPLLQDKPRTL

B1: anti-GPNMB antibody GPN-83 (antibody, V domains shown)
VH: QVQLQESGPGLVKPSETLSLTCTVSGISITTGNYRWSWIRQPPGKGLEWIGYIDYSGTITYNPSLKSRVTITRDTSKNQFSLELSSVTAADTAVYYCARDLTHWYFDVWGQGTLVTVSS
VL: DIVMTQSPDSLAVSLGERATINCKSSRSVDYYGIGFVNWYQQKPGQPPKLLIYATSIQGSGVPDRFSGSGSGTDFTLTISSLQAEDVAVYYCQQQKEVPPTFGGGTKVEIK
B2: anti-GPNMB antibody GPN-86 (antibody, V domains shown)
VH: B1 VH
VL: B1 VL with V37L, I57K
B3: anti-GPNMB antibody GPN-89 (antibody, V domains shown)
VH: B1 VH with F106Y
VL: B1 VL with V37L, I57H
B4: anti-GPNMB antibody GPN-90 (antibody, V domains shown)
VH: B1 VH with S67Q
VL: B1 VL with V37L, I57H
B5: anti-GPNMB antibody GPN-85 (antibody, V domains shown)
VH: B1 VH with S67Q
VL: B1 VL with Y32F, V37L, I57H
B6: anti-GPNMB antibody GPN-87 (antibody, V domains shown)
VH: B1 VH with F106Y
VL: B1 VL with V37L, I57K
B7: anti-GPNMB antibody GPN-88 (antibody, V domains shown)
VH: B1 VH
VL: B1 VL with V37L, I57H, E97H
B8: anti-GPNMB antibody GPN-84 (antibody, V domains shown)
VH: B1 VH with F106Y
VL: B1 VL
B9: anti-GPNMB antibody GPN-91 (antibody, V domains shown)
VH: B1 VH
VL: B1 VL with V37L, I57H, V98R

The binders below were run against T1, soluble mouse GPNMB (recombinant …) (assay: SPR Biacore, IgG captured).
Protocol: (§1) Binding kinetics of the humanized and affinity matured anti-GPNMB antibodies described above were evaluated using the Biacore T200 (Cytiva). Briefly, IgGs were diluted to 10 μg/mL and captured using a Protein A/G (ThermioFisher, #21186) surface on a CM5 chip that was prepared by amine coupling according to the instrument manufacturer's recommendations. The captured antibodies were tested for their ability to bind human, cynomolgus monkey, and mouse GPNMB recombinant proteins as follows.
(§2) Human, cynomolgus, and mouse GPNMB analytes were diluted in running buffer (HBS-EP+, Teknova, #8022, with 0.5 mg/ml BSA, MP Biomedicals LLC, #820451), to a concentration of 300 nM, then diluted 3-fold serially to 100 nM, 33 nM, and 11 nM. Each sample was injected for 2 minutes to allow association, followed by dissociation in buffer alone for 10 minutes. Each sample injection was followed by the regeneration of the chip with three 30-second injections of 10 mM glycine, pH 1.7. Fresh antibody was captured at the beginning of each cycle.
(§3) Data were analyzed using Biacore evaluation software to generate kinetic constants. The equilibrium dissociation constants (KD) were calculated from the fitted association and dissociation rate constants (k-on and k-off) for each of the anti-GPNMB antibodies.

Kd [nM] | koff [s⁻¹] | kon [M⁻¹ s⁻¹] | Binder
1.5 | 0.00024 | 160000 | B1
1.2 | 0.00023 | 190000 | B2
0.8 | 0.00012 | 160000 | B3
0.7 | 0.00011 | 160000 | B4
0.5 | 7.4e-05 | 140000 | B5
1.5 | 0.00028 | 190000 | B6
1.1 | 0.00017 | 150000 | B7
2.1 | 0.00034 | 160000 | B8
1.1 | 0.00014 | 140000 | B9

The binders below were run against T2, soluble human GPNMB (recombinant …) (assay: SPR Biacore, IgG captured).
Protocol: as §1, §2, §3

Kd [nM] | koff [s⁻¹] | kon [M⁻¹ s⁻¹] | Binder
7.5 | 0.0016 | 210000 | B1
4.5 | 0.0012 | 260000 | B2
2.9 | 0.00057 | 200000 | B3
2.8 | 0.00053 | 190000 | B4
1 | 0.00018 | 170000 | B5
5.4 | 0.0013 | 250000 | B6
3.1 | 0.00063 | 200000 | B7
9.6 | 0.0021 | 220000 | B8
3 | 0.00053 | 180000 | B9

The binders below were run against T3, mouse GPNMB endogenously expressed on … (assay: FACS titration, B16F10 cells).
Protocol: Affinity matured anti-GPNMB antibodies of the present disclosure were examined to determine their ability to bind human and mouse GPNMB expressed on FS293-huGPNMB+ or B16F10 cells, respectively. Cell-based affinity measurements were performed to ascertain the apparent affinities of anti-GPNMB antibodies to cell-surface expressed GPNMB. Serial dilutions of anti-GPNMB antibodies of the present disclosure were added to 100,000 FS293-huGPNMB+ or B16F10 cells and allowed to achieve binding equilibrium at 4° C. After addition of fluorescently labeled secondary antibody and brief washing steps, MFI values as a function of titrated antibody concentration were recorded via FACS analysis. Equilibrium binding curves were fit using nonlinear regression analysis with Graphpad Prism 6 software.

EC50 [nM] | Binder
0.293 | B1
0.178 | B2
0.443 | B3
0.416 | B4
0.317 | B5
0.37 | B6
0.262 | B7
0.33 | B8
0.273 | B9
